Source: patent publication US20240156870A1 (NATIONAL RESEARCH COUNCIL OF CANADA, published 2024)
Read-outs that look alike come from different tables or passages of the source.

Experiments:
[1] = target: T1, rhesus EGFR-Fc fusion protein (rhesus, UniProt P55245 25-645); assay: SPR single-cycle, VHH over amine-coupled rhesus EGFR-Fc
T1 construct: Bought; not shown: Fc part of the bought fusion

[2] = target: T2, human EGFR-Fc fusion protein (human, UniProt P00533 25-645); assay: SPR, VHH over human EGFR-Fc;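 also: Single-cycle kinetics on Biacore T200 at 25 °C in HBS-EP, monomeric VHHs at 0.6–50 nM flowed over immobilized EGFR, 180 s association, 600 s dissociation, ethanolamine-blocked reference cell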
T2 construct: Bought; not shown: Fc part of the bought fusion

[3] = target: recombinant human EGFRvIII ectodomain (human) (UniProt P00533); assay: SPR multi-cycle, VHH over amine-coupled EGFRvIII ectodomain
[4] = target: T3, mouse EGFR-Fc fusion protein (mouse, UniProt Q01279 25-647); assay: ELISA, VHH titrated from about 0.5 to 1000 ng/mL, OD 450 nm
T3 construct: Bought; not shown: Fc part of the bought fusion

[5] = target: T1, rhesus EGFR-Fc fusion protein; assay: as above
[6] = target: T2, human EGFR-Fc fusion protein; assay: as above
[7] = target: T4, recombinant 6xHis-tagged human EGFR ectodomain (human, UniProt P00533 25-645); assay: SPR multi-cycle, VHH over amine-coupled EGFR ectodomain
T4 construct: extracellular domain; Bought; also called recombinant human EGFR; EGFR extracellular domain; not shown: 6xHis tag

[8] = target: T1, rhesus EGFR-Fc fusion protein; assay: SPR single-cycle, VHH over amine-coupled rhesus EGFR-Fc; remark: listed apart in the source
Method: (§1) In the second SPR experiment, single-cycle kinetic analyses were performed on a Biacore™ T200 instrument (GE Healthcare) at 25° C. in HBS-EP buffer. […] An ethanolamine-blocked flow cell served as the reference. Monomeric VHHs at concentrations ranging from 0.6 to 50 nM were injected over the EGFR surfaces in HBS-EP buffer at a flow rate of 40 μL/min. The contact time was 180 s and the dissociation time was 600 s. The EGFR surfaces were regenerated using a 10 s pulse of 10 mM glycine, pH 1.5.

[9] = target: T2, human EGFR-Fc fusion protein; assay: SPR single-cycle, VHH over amine-coupled human EGFR-Fc
Method: as §1

[10] = target: T3, mouse EGFR-Fc fusion protein; assay: SPR single-cycle, VHH over amine-coupled mouse EGFR-Fc
Method: as §1

[11] = target: T3, mouse EGFR-Fc fusion protein; assay: ELISA, VHH titrated from about 0.5 to 1000 ng/mL, OD 450 nm; remark: listed apart in the source
[12] = target: T1, rhesus EGFR-Fc fusion protein; assay: as above; remark: listed apart in the source
[13] = target: T2, human EGFR-Fc fusion protein; assay: as above; remark: listed apart in the source
[14] = target: T4, recombinant 6xHis-tagged human EGFR …; assay: SPR multi-cycle, EGFR ectodomain over amine-coupled NRC-sdAb032
Method: (§2) In the first SPR experiment, multi-cycle kinetic analyses were performed on a Biacore™ 3000 instrument (GE Healthcare) at 25° C. in HBS-EP buffer [10 mM HEPES, pH 7.4, containing 150 mM NaCl, 3 mM EDTA and 0.005% (w/v) surfactant P20]. […] An ethanolamine-blocked flow cell served as the reference. Monomeric VHHs at concentrations ranging from 0.1 to 100 nM were injected over the EGFR and EGFRvIII surfaces in HBS-EP buffer at a flow rate of 20 μL/min. […] Contact times were 180-300 s and dissociation times were 300-600 s.

[15] = target: T3, mouse EGFR-Fc fusion protein; assay: ELISA, VHH titrated from about 0.5 to 1000 ng/mL, OD 450 nm; remark: listed apart in the source
[16] = target: T4, recombinant 6xHis-tagged human EGFR …; assay: SPR (value of Table 2 repeated in Table 6)
Method: as §2

[17] = target: T1, rhesus EGFR-Fc fusion protein; assay: ELISA, VHH titrated from about 0.5 to 1000 ng/mL, OD 450 nm; remark: listed apart in the source
[18] = target: T2, human EGFR-Fc fusion protein; assay: as above; remark: listed apart in the source

| koff [1] [s⁻¹] | kon [1] [M⁻¹ s⁻¹] | Kd [2] [nM] | koff [2] [s⁻¹] | kon [2] [M⁻¹ s⁻¹] | Kd [3] [nM] | koff [3] [s⁻¹] | kon [3] [M⁻¹ s⁻¹] | Kd [7] [nM] | koff [7] [s⁻¹] | kon [7] [M⁻¹ s⁻¹] | Kd [8] [nM] | Kd [9] [nM] | koff [9] [s⁻¹] | kon [9] [M⁻¹ s⁻¹] | Kd [10] [nM] | koff [10] [s⁻¹] | kon [10] [M⁻¹ s⁻¹] | Binder | other results |
| --- | --- | --- | --- | --- | --- | --- | --- | --- | --- | --- | --- | --- | --- | --- | --- | --- | --- | --- | --- |
| 0.0017 | 85000 | 8.9 | 0.0022 | 250000 | 2.6 | 0.00077 | 290000 | 1.7 | 0.00067 | 400000 | 19.6 | 8.9 | 0.0022 | 250000 | – | – | – | NRC-sdAb022 (VHH, Monomeric llama VHH; in ELISA a version with biotin acceptor peptide and 6xHis was used; Stands for the 'NRC-sdAb022-family' in the cross-species and binning sentences; also called EGFR2; NRC-sdAb022-family VHHs; not shown: C-terminal c-Myc and 6xHis tags) VHH: QVQLVESGGGLVQPGGSLKLSCAVSGFAFERNGVSWYRQAPGKQREFVAVISSGTTTYKDSVKGRFTISRDNTRNTAYLQMNNLKPEDTAVYYCNLVPPTPYWGQGTQVTVSS | binding result [4]: no binding (tested: 1000 ng/mL); EC50 (read off the curve) [5]: ~0.004 µg/mL; EC50 (read off the curve) [6]: ~0.003 µg/mL |
| 0.00011 | 110000 | 1.8 | 0.00016 | 90000 | – | – | – | 1.1 | 0.00017 | 150000 | 1 | 1.8 | 0.00016 | 90000 | 3.1 | 0.00028 | 92000 | NRC-sdAb033 (VHH, Monomeric llama VHH; in ELISA a version with biotin acceptor peptide and 6xHis was used; also called EVE48; not shown: C-terminal c-Myc and 6xHis tags) VHH: QVQLVESGGGLVQPGGSLRLSCAASESIDSIYVMQWYRQAPEKPRDVVATLTPGGGSYYPEAVLGRFTISRDDAKNTVYLQMNSLKPEDTAVYYCNAFHRLRGTHYWGQGTQVTVSS | EC50 (read off the curve) [11]: ~0.02 µg/mL; EC50 (read off the curve) [12]: ~0.02 µg/mL; EC50 (read off the curve) [13]: ~0.02 µg/mL |
| 0.0039 | 480000 | 6.9 | 0.0025 | 360000 | – | – | – | – | – | – | 8.1 | 6.9 | 0.0025 | 360000 | – | – | – | NRC-sdAb032 (VHH, Monomeric llama VHH; in ELISA a version with biotin acceptor peptide and 6xHis was used; also called EVE46; not shown: C-terminal c-Myc and 6xHis tags) VHH: QVKLEESGGGLVQPGGSLRLSCSASGSISSISVMGWYRQAPGKQRELVARITSGGISNYVDSVKGRFTISGDSAKNIVYLQMNSLKPEDTAVYYCYMYVHVGYWVDYWGQGTQVTVSS | Kd [14]: 12.9 nM; koff [14]: 0.0013 s⁻¹; kon [14]: 100000 M⁻¹ s⁻¹; binding result [15]: no binding (tested: 1000 ng/mL) |
| – | – | 6 | 0.00055 | 92000 | 8.6 | 0.00084 | 98000 | 9 | 0.00075 | 84000 | – | 6 | 0.00055 | 92000 | 11.6 | 0.0075 | 650000 | NRC-sdAb028 (VHH, Monomeric llama VHH; in ELISA a version with biotin acceptor peptide and 6xHis was used; also called EGFR10; not shown: C-terminal c-Myc and 6xHis tags) VHH: EVQLVESGGGLVQPGGSLRLSCTVSGSFFSRDAMGWHRQAPGKQREMVAGISSGGLSNHAESVKGRFTISRDNSKNTVYLQMNNLKPEDTAVYYCSIYEDGVWTSWGQGTQVTVSS | Kd [16]: 9 nM; binding result [17]: no binding (tested: 1000 ng/mL); EC50 (read off the curve) [18]: ~0.007 µg/mL |
